The values that follow come from the supplement of paper PMC9112550, “Optimization of the antimicrobial peptide Bac7 by deep mutational scanning” (BMC Biology, 2022).
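Note: peptides expressed intracellularly from a pBAD plasmid library in pooled LB shake-flask culture, induced with 0.3% L-arabinose, DNA abundance read by NGS, three biological replicates, DESeq2 with apeglm shrinkage.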

The data set relates to Escherichia coli TOP10. The experiment in a line: shrunken log2 fold change of peptide-encoding DNA abundance (4.5 h post-induction vs induction); higher = less antimicrobial activity (less host growth inhibition). The settings on record: time post-induction: 4.5 h; library: site-saturation at positions 5, 18, 19, 20.
On to RRIRERPPRLPRPRPRPMRKPRP, for which the “shrunken log2 fold change” value is -0.0645.

RRIRLRPPRLPRPRPRPDIIPRP: the “shrunken log2 fold change” value is -0.173. As for RRIRSRPPRLPRPRPRPDGGPRP, the figure is -0.125; as for RRIRERPPRLPRPRPRPNLMPRP, -0.665; as for RRIRPRPPRLPRPRPRPVWMPRP, 0.136. As for RRIRIRPPRLPRPRPRPCWSPRP, the figure is 0.0832; as for RRIRMRPPRLPRPRPRPVMFPRP, 0.199; as for RRIRGRPPRLPRPRPRPESNPRP, 2. Turning to RRIRFRPPRLPRPRPRPWPNPRP, the “shrunken log2 fold change” value is -0.086. The result for RRIRDRPPRLPRPRPRPDGMPRP reads 0.232.

In the case of RRIRGRPPRLPRPRPRPTGVPRP, the “shrunken log2 fold change” value was found to be 0.742. The result for RRIRMRPPRLPRPRPRPRVTPRP reads 0.467; that for RRIRTRPPRLPRPRPRPDEEPRP, 0.0173; that for RRIRLRPPRLPRPRPRPPAMPRP, 0.42. In the case of RRIRIRPPRLPRPRPRPTAIPRP, the “shrunken log2 fold change” value is -0.574. Turning to RRIRNRPPRLPRPRPRPQCCPRP, the “shrunken log2 fold change” value was -0.0308.

RRIRLRPPRLPRPRPRPWPYPRP: the “shrunken log2 fold change” value was -0.127. As for RRIRIRPPRLPRPRPRPRRGPRP, the figure is 0.184; as for RRIRDRPPRLPRPRPRPPDKPRP, 0.189.

Take RRIRARPPRLPRPRPRPCWPPRP: the “shrunken log2 fold change” value worked out at 0.162.

Turning to RRIRLRPPRLPRPRPRPWIMPRP, the “shrunken log2 fold change” value was -0.224.

In the case of RRIRHRPPRLPRPRPRPYGHPRP, the “shrunken log2 fold change” value is -0.551. The result for RRIRYRPPRLPRPRPRPERNPRP reads 0.00677; that for RRIRYRPPRLPRPRPRPSTNPRP, -0.757. As for RRIRRRPPRLPRPRPRPNFHPRP, the figure is 0.75; as for RRIRHRPPRLPRPRPRPKLPPRP, 0.0191. The result for RRIRERPPRLPRPRPRPVNSPRP reads 0.0303; that for RRIRMRPPRLPRPRPRPVNQPRP, -0.0449. Take RRIRMRPPRLPRPRPRPLIYPRP: the “shrunken log2 fold change” value is -0.0335.

As to RRIRHRPPRLPRPRPRPAHEPRP, the “shrunken log2 fold change” value came out at 0.0538. As for RRIRHRPPRLPRPRPRPEIGPRP, the figure is 0.103; as for RRIRPRPPRLPRPRPRPWLVPRP, 0.159.

On to RRIRWRPPRLPRPRPRPFILPRP, for which the “shrunken log2 fold change” value is -0.476.

On to RRIRMRPPRLPRPRPRPCFFPRP, for which the “shrunken log2 fold change” value stood at 0.16. Turning to RRIRQRPPRLPRPRPRPGRCPRP, the “shrunken log2 fold change” value was determined as 0.321. The result for RRIRRRPPRLPRPRPRPEYNPRP reads -0.103; that for RRIRWRPPRLPRPRPRPCAHPRP, -0.107; that for RRIRNRPPRLPRPRPRPQKVPRP, 0.007. As for RRIRARPPRLPRPRPRPELWPRP, the figure is 1.3; as for RRIRQRPPRLPRPRPRPYCKPRP, -0.257. As for RRIRERPPRLPRPRPRPDQLPRP, the figure is -0.248; as for RRIRGRPPRLPRPRPRPSLRPRP, 0.57; as for RRIRSRPPRLPRPRPRPWFAPRP, -0.00302. As for RRIRRRPPRLPRPRPRPAVGPRP, the “shrunken log2 fold change” value worked out at 0.344. The result for RRIRVRPPRLPRPRPRPFSNPRP reads -0.28. As for RRIRQRPPRLPRPRPRPGWCPRP, the figure is 0.0842.

As to RRIRCRPPRLPRPRPRPHAWPRP, the “shrunken log2 fold change” value was -0.245. As for RRIRTRPPRLPRPRPRPTTKPRP, the “shrunken log2 fold change” value is -0.0673. RRIRLRPPRLPRPRPRPNGPPRP: the “shrunken log2 fold change” value is -0.146.

Take RRIRNRPPRLPRPRPRPMSVPRP: the “shrunken log2 fold change” value amounted to 0.0774. As to RRIRSRPPRLPRPRPRPCEKPRP, the “shrunken log2 fold change” value was -0.475.

As to RRIRDRPPRLPRPRPRPMWAPRP, the “shrunken log2 fold change” value was -0.0235. The result for RRIRYRPPRLPRPRPRPEIPPRP reads 0.0336.

Take RRIRHRPPRLPRPRPRPPCKPRP: the “shrunken log2 fold change” value was -0.196.

On to RRIRFRPPRLPRPRPRPEAPPRP, for which the “shrunken log2 fold change” value was 0.529. The result for RRIRKRPPRLPRPRPRPIFNPRP reads -0.0554; that for RRIRMRPPRLPRPRPRPSMIPRP, 0.229; that for RRIRPRPPRLPRPRPRPPWEPRP, 0.0889. As for RRIRHRPPRLPRPRPRPHGHPRP, the figure is 0.219; as for RRIRARPPRLPRPRPRPWRTPRP, 0.14. As for RRIRERPPRLPRPRPRPYGIPRP, the figure is -0.00973. For RRIRMRPPRLPRPRPRPLMSPRP, the “shrunken log2 fold change” value was 0.00915. The result for RRIRCRPPRLPRPRPRPANDPRP reads -0.799; that for RRIRMRPPRLPRPRPRPVRMPRP, 0.132; that for RRIRVRPPRLPRPRPRPEIIPRP, -0.0128.

Take RRIRPRPPRLPRPRPRPTHYPRP: the “shrunken log2 fold change” value is 0.206. For the sequence RRIRCRPPRLPRPRPRPNKRPRP, the “shrunken log2 fold change” value was -0.42. The result for RRIRQRPPRLPRPRPRPCLYPRP reads -0.29.

Consider RRIRKRPPRLPRPRPRPWDKPRP, for which the “shrunken log2 fold change” value is -0.0876.

As to RRIRDRPPRLPRPRPRPPCQPRP, the “shrunken log2 fold change” value amounted to 0.029.

On to RRIRDRPPRLPRPRPRPTWQPRP, for which the “shrunken log2 fold change” value was 0.542. As for RRIRKRPPRLPRPRPRPDSLPRP, the figure is 0.00855; as for RRIRVRPPRLPRPRPRPQKMPRP, -0.234.

For the sequence RRIRRRPPRLPRPRPRPYTLPRP, the “shrunken log2 fold change” value is -0.34. RRIRERPPRLPRPRPRPREPPRP: the “shrunken log2 fold change” value was 0.392. For the sequence RRIRHRPPRLPRPRPRPFHWPRP, the “shrunken log2 fold change” value is -0.0742.

Take RRIRWRPPRLPRPRPRPHRGPRP: the “shrunken log2 fold change” value was -0.0412. As for RRIRCRPPRLPRPRPRPNFFPRP, the figure is 0.0889; as for RRIRVRPPRLPRPRPRPANKPRP, -0.36.

Take RRIRDRPPRLPRPRPRPDTRPRP: the “shrunken log2 fold change” value was determined as 0.203. The result for RRIRHRPPRLPRPRPRPCQVPRP reads -0.345; that for RRIRFRPPRLPRPRPRPPITPRP, -0.389. The result for RRIRWRPPRLPRPRPRPEREPRP reads 0.295; that for RRIRDRPPRLPRPRPRPYLRPRP, -0.0137; that for RRIRSRPPRLPRPRPRPNQEPRP, 0.0169. As for RRIRTRPPRLPRPRPRPTMKPRP, the figure is -0.334; as for RRIRWRPPRLPRPRPRPYTKPRP, 0.000534; as for RRIRDRPPRLPRPRPRPELFPRP, 0.184. As for RRIRVRPPRLPRPRPRPIRCPRP, the “shrunken log2 fold change” value is -0.0498. With RRIRDRPPRLPRPRPRPSLGPRP, the “shrunken log2 fold change” value is 0.487. The result for RRIRKRPPRLPRPRPRPTHNPRP reads 0.299. As for RRIRWRPPRLPRPRPRPVVWPRP, the figure is 0.626. As for RRIRGRPPRLPRPRPRPDSEPRP, the figure is 0.321; as for RRIRWRPPRLPRPRPRPFTCPRP, 0.000407. On to RRIRARPPRLPRPRPRPMEIPRP, for which the “shrunken log2 fold change” value turned out to be 0.146.

RRIRRRPPRLPRPRPRPETTPRP: the “shrunken log2 fold change” value amounted to 1.09. The result for RRIRGRPPRLPRPRPRPFYCPRP reads -0.0638.

For RRIRNRPPRLPRPRPRPSCQPRP, the “shrunken log2 fold change” value was -0.185.

With RRIRLRPPRLPRPRPRPHGKPRP, the “shrunken log2 fold change” value was -0.191.

As for RRIRNRPPRLPRPRPRPFARPRP, the “shrunken log2 fold change” value was -0.113. For the sequence RRIRTRPPRLPRPRPRPQHWPRP, the “shrunken log2 fold change” value stood at 0.08. The result for RRIRLRPPRLPRPRPRPNYEPRP reads -0.416. In the case of RRIRPRPPRLPRPRPRPCMRPRP, the “shrunken log2 fold change” value was -0.239. As for RRIRDRPPRLPRPRPRPKGHPRP, the figure is 0.0517; as for RRIRQRPPRLPRPRPRPPTVPRP, -0.225; as for RRIRWRPPRLPRPRPRPKQEPRP, 0.0489. As for RRIRDRPPRLPRPRPRPLELPRP, the figure is -0.014.

Consider RRIRFRPPRLPRPRPRPITYPRP, for which the “shrunken log2 fold change” value is -0.472. As for RRIRYRPPRLPRPRPRPQKFPRP, the figure is -0.0224; as for RRIRPRPPRLPRPRPRPVPHPRP, 0.0546. The result for RRIRNRPPRLPRPRPRPHQAPRP reads -0.0146; that for RRIRTRPPRLPRPRPRPEFDPRP, 0.214. The result for RRIRARPPRLPRPRPRPMGAPRP reads 0.572. Take RRIRFRPPRLPRPRPRPGCVPRP: the “shrunken log2 fold change” value turned out to be 0.15. Turning to RRIRERPPRLPRPRPRPECQPRP, the “shrunken log2 fold change” value was -0.0134. The result for RRIRIRPPRLPRPRPRPFNGPRP reads -0.211. As to RRIRHRPPRLPRPRPRPETKPRP, the “shrunken log2 fold change” value is -0.0652. As for RRIRTRPPRLPRPRPRPQVQPRP, the figure is -0.0311; as for RRIRHRPPRLPRPRPRPPVMPRP, -0.0747; as for RRIRPRPPRLPRPRPRPEIPPRP, 0.0702.

In the case of RRIRPRPPRLPRPRPRPLAYPRP, the “shrunken log2 fold change” value is -0.074. As for RRIRTRPPRLPRPRPRPSAGPRP, the figure is -0.0241. The result for RRIRERPPRLPRPRPRPSCCPRP reads 0.294; that for RRIRPRPPRLPRPRPRPFCPPRP, -0.345.

As to RRIRRRPPRLPRPRPRPCGCPRP, the “shrunken log2 fold change” value came to 0.0953.
